{"source": "paper PMC5131779", "key": {"G5N R335E": {"target": "G5N R335E (Homo sapiens, UniProt Q8TEQ6 1-726, R335E)", "sequence (Q8TEQ6 1-726 R335E)": "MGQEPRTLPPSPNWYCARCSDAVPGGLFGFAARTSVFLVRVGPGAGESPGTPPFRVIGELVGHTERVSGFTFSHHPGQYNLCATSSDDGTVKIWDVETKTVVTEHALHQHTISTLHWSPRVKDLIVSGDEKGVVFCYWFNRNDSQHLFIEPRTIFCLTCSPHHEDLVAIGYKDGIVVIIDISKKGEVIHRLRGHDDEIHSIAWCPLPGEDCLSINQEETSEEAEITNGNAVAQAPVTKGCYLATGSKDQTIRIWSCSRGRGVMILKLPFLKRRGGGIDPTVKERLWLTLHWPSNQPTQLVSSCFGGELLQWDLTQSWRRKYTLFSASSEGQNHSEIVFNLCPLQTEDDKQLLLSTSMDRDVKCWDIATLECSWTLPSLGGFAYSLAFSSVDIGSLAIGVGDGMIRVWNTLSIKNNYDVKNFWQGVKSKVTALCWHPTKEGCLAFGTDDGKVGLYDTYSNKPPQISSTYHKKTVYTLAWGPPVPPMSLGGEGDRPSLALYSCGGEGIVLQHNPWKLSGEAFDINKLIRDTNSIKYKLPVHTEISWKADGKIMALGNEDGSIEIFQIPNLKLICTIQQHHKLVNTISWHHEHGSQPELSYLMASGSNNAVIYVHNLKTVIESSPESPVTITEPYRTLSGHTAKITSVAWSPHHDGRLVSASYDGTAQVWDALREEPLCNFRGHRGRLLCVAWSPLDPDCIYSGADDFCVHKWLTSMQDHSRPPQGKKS", "experiment": "FP"}, "G5N M403E": {"target": "G5N M403E (Homo sapiens, UniProt Q8TEQ6 1-726, M403E)", "sequence (Q8TEQ6 1-726 M403E)": "as the sequence (Q8TEQ6 1-726 R335E) above, with E335R, M403E counted along it", "experiment": "FP"}, "G5N M357A": {"target": "G5N M357A (Homo sapiens, UniProt Q8TEQ6 1-726, M357A)", "sequence (Q8TEQ6 1-726 M357A)": "as the sequence (Q8TEQ6 1-726 R335E) above, with E335R, M357A counted along it", "experiment": "FP"}, "G5N Y383F": {"target": "G5N Y383F (Homo sapiens, UniProt Q8TEQ6 1-726, Y383F)", "sequence (Q8TEQ6 1-726 Y383F)": "as the sequence (Q8TEQ6 1-726 R335E) above, with E335R, Y383F counted along it", "experiment": "FP"}, "G5N R33A": {"target": "G5N R33A (Homo sapiens, UniProt Q8TEQ6 1-726, R33A)", "sequence (Q8TEQ6 1-726 R33A)": "as the sequence (Q8TEQ6 1-726 R335E) above, with R33A, E335R counted along it", "experiment": "FP"}, "G5N WT [1]": {"target": "T1, G5N WT (Homo sapiens, UniProt Q8TEQ6 1-726)", "T1 sequence (Q8TEQ6 1-726)": "as the sequence (Q8TEQ6 1-726 R335E) above, with E335R counted along it", "experiment": "FP"}, "G5N N13A": {"target": "G5N N13A (Homo sapiens, UniProt Q8TEQ6 1-726, N13A)", "sequence (Q8TEQ6 1-726 N13A)": "as the sequence (Q8TEQ6 1-726 R335E) above, with N13A, E335R counted along it", "experiment": "FP"}, "G5N R359A": {"target": "G5N R359A (Homo sapiens, UniProt Q8TEQ6 1-726, R359A)", "sequence (Q8TEQ6 1-726 R359A)": "as the sequence (Q8TEQ6 1-726 R335E) above, with E335R, R359A counted along it", "experiment": "FP"}, "G5N WT [2]": {"target": "T1, G5N WT", "experiment": "crystal structure"}, "G5N Y474A": {"target": "G5N Y474A (Homo sapiens, UniProt Q8TEQ6 1-726, Y474A)", "sequence (Q8TEQ6 1-726 Y474A)": "as the sequence (Q8TEQ6 1-726 R335E) above, with E335R, Y474A counted along it", "experiment": "EMSA"}, "G5N WT [3]": {"target": "T1, G5N WT", "experiment": "EMSA"}, "G5N WT [4]": {"target": "T1, G5N WT", "experiment": "EMSA", "remark": "listed apart in the source"}}, "data": [{"binder": "GCAAUUUUUGACA (ssRNA)", "note": "[U4 13-mer, FITC]", "values": [{"measurement": "Kd", "setting": "G5N R335E", "value": 96.7, "unit": "µM"}, {"measurement": "Kd", "setting": "G5N M403E", "value": 2, "unit": "µM"}, {"measurement": "Kd", "setting": "G5N M357A", "value": 8.1, "unit": "µM"}, {"measurement": "Kd", "setting": "G5N Y383F", "value": 3.8, "unit": "µM"}, {"measurement": "Kd", "setting": "G5N R33A", "value": 3.3, "unit": "µM"}, {"measurement": "Kd", "setting": "G5N WT [1]", "value": 0.24, "unit": "µM"}, {"measurement": "Kd", "setting": "G5N N13A", "value": 1.4, "unit": "µM"}, {"measurement": "Kd", "setting": "G5N R359A", "value": 46.6, "unit": "µM"}]}, {"binder": "AUUUUUG (ssRNA)", "note": "[U4 7-mer (bare Sm site)]", "values": [{"measurement": "binding result", "setting": "G5N WT [2]", "value": "binds"}]}, {"binder": "GCAAUUUUUGACA (ssRNA)", "note": "[U4 13-mer]", "values": [{"measurement": "binding result", "setting": "G5N Y474A", "value": "binds"}]}, {"binder": "AAUUUUUG (ssRNA)", "note": "[U4 8-mer]", "values": [{"measurement": "binding result", "setting": "G5N WT [3]", "value": "binds"}]}, {"binder": "CAAUUUUUGAC (ssRNA)", "note": "[U4 11-mer]", "values": [{"measurement": "binding result", "setting": "G5N WT [4]", "value": "binds"}]}, {"binder": "CAAUUUUUG (ssRNA)", "note": "[U4 9-mer (soak)]", "values": [{"measurement": "binding result", "setting": "G5N WT [2]", "value": "binds"}]}]}
